Target: T1, p53-ZF43 bait (UniProt P04637)
T1 construct: also called p53 bait; source: BHK-21, transfected, in cells
Experiment: two-hybrid
Conditions: partners not purified

T1 sequence (P04637 whole entry): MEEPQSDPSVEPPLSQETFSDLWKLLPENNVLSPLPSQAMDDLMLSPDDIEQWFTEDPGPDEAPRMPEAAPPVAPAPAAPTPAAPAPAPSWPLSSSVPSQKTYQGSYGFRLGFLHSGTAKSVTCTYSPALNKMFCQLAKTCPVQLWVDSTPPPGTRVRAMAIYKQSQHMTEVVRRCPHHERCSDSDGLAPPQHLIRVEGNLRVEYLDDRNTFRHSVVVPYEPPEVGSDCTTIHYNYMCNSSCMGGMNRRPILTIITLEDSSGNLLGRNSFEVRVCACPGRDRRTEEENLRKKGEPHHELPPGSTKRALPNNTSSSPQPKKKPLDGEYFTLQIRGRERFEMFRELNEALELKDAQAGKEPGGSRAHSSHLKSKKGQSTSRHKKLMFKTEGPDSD

B1: Nb139-VP64 (parental, NLS-containing fusion) (VHH)
VHH: QVQLQESGGGLVQAGGSLRLSCAASERTFSTYAMGWFRQAPGREREFLAQINWSGTTTYYAESVKDRTTISRDNAKNTVYLEMNNLNADDTGIYFCAAHPQRGWGSTLGWTYWGQGTQVTVSS
notes: also called Nb139[WT]; source: BHK-21, transfected, in cells
B1: binds.

From PMC12059018 (Nature Communications, 2025)
